Source: article PMC9482650, “Quantitative fragmentomics allow affinity mapping of interactomes” (Nature Communications, 2022)

How the values were obtained:
Test in all cases: holdup assay
Parameters in all cases: key: below the threshold = too weak to quantify, mostly under pKd 3.1 to 4
CARD11, Q9BXL7 = biological target: T1, CARD11, Q9BXL7
T1 sequence (Q9BXL7 662-765, limits assumed, looked up): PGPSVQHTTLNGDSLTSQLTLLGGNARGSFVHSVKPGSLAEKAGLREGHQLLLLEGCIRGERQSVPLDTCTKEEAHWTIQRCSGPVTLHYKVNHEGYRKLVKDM

DFNB31_3, Q9P202 = biological target: T2, DFNB31_3, Q9P202
T2 sequence (Q9P202 811-907, limits assumed, looked up): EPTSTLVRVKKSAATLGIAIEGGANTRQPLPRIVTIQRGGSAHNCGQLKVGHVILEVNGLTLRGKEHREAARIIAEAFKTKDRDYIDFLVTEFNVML

DLG1_3, Q12959 = biological target: DLG1_3, Q12959
DLG2_3, Q15700 = biological target: DLG2_3, Q15700
FRMPD2_3, Q68DX3 = biological target: FRMPD2_3, Q68DX3
GOPC, Q9HD26 = biological target: GOPC, Q9HD26
GORASP1, Q9BQQ3 = biological target: GORASP1, Q9BQQ3
GRASP, Q7Z6J2 = biological target: GRASP, Q7Z6J2
GRIP1_4, Q9Y3R0 = biological target: T3, GRIP1_4, Q9Y3R0
T3 sequence (Q9Y3R0 467-571, limits assumed, looked up): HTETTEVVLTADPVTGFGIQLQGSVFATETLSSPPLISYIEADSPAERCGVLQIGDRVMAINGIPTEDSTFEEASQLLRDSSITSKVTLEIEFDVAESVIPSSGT

GRIP1_7, Q9Y3R0 = biological target: T4, GRIP1_7, Q9Y3R0
T4 sequence (Q9Y3R0 999-1096, limits assumed, looked up): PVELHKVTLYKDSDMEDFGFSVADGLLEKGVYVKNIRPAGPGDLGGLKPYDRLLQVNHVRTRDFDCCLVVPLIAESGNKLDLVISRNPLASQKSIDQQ

GRIP2_4, Q9C0E4 = biological target: GRIP2_4, Q9C0E4
GRIP2_6, Q9C0E4 = biological target: GRIP2_6, Q9C0E4
HTRA3, P83110 = biological target: T5, HTRA3, P83110
T5 sequence (P83110 354-453, limits assumed, looked up): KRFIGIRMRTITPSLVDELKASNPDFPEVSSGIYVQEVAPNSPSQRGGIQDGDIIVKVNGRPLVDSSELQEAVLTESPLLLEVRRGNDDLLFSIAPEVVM

IL16_3, Q14005 = biological target: IL16_3, Q14005
Inadl_10, Q8NI35 = biological target: Inadl_10, Q8NI35
Inadl_2, Q8NI35 = biological target: Inadl_2, Q8NI35
Inadl_6, Q8NI35 = biological target: Inadl_6, Q8NI35
LRRC7, Q96NW7 = biological target: T6, LRRC7, Q96NW7
T6 sequence (Q96NW7 1440-1537, limits assumed, looked up): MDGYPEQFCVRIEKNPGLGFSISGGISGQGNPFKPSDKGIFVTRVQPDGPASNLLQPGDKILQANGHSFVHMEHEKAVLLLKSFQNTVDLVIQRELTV

MAGI3_2, Q5TCQ9 = biological target: MAGI3_2, Q5TCQ9
NHERF3_3, Q5T2W1 = biological target: T7, NHERF3_3, Q5T2W1
T7 sequence (Q5T2W1 238-333, limits assumed, looked up): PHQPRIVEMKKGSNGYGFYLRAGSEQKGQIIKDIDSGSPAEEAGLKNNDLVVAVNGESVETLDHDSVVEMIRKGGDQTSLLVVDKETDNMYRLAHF

RHPN1, Q8TCX5 = biological target: T8, RHPN1, Q8TCX5
T8 sequence (Q8TCX5 508-602, limits assumed, looked up): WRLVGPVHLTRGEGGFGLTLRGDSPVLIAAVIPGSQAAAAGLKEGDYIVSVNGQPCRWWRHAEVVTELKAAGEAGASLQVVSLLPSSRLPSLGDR

SCRIB_1, Q14160 = biological target: SCRIB_1, Q14160
SNTA1, Q13424 = biological target: T9, SNTA1, Q13424
T9 sequence (Q13424 82-180, limits assumed, looked up): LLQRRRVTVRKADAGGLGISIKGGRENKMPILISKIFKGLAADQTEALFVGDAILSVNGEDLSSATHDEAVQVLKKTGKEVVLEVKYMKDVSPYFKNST

SNTB1, Q13884 = biological target: T10, SNTB1, Q13884
T10 sequence (Q13884 107-205, limits assumed, looked up): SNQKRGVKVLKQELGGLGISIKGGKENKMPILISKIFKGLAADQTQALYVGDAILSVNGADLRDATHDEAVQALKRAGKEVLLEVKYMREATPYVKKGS

SNX27, Q96L92 = biological target: SNX27, Q96L92
TIAM2, Q8IVF5 = biological target: T11, TIAM2, Q8IVF5
T11 sequence (Q8IVF5 885-986, limits assumed, looked up): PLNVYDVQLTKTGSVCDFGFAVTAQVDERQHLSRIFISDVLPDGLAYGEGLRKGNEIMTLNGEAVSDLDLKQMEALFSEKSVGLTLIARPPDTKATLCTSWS

[1] = plain residues with an end cap or a label only (N-terminal biotin on a linker: ado-ado)
[2] = plain residues with an end cap or a label only (N-terminal biotin on a linker: ahx)
[3] = plain residues with an end cap or a label only (N-terminal biotin on a linker: (peg)3)

Chain of SCRIB_1, Q14160 (Q14160 718-814): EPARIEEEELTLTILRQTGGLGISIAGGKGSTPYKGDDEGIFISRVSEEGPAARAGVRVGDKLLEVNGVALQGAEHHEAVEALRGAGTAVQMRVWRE
Chain of Inadl_6, Q8NI35 (Q8NI35 1058-1167): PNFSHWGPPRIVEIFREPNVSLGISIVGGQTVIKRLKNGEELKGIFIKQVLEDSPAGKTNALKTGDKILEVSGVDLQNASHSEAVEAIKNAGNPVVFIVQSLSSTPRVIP
Chain of IL16_3, Q14005 (Q14005 1107-1207): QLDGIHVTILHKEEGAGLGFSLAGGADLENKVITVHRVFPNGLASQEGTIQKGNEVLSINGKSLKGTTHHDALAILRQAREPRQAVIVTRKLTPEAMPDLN
Chain of Inadl_2, Q8NI35 (Q8NI35 238-335): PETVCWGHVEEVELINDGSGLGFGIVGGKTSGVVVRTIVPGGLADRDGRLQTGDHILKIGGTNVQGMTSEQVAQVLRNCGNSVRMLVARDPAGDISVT
Chain of FRMPD2_3, Q68DX3 (Q68DX3 1073-1166): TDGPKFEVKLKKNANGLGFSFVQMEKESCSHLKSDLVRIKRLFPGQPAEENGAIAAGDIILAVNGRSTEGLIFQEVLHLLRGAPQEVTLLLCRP
Chain of MAGI3_2, Q5TCQ9 (Q5TCQ9 398-503): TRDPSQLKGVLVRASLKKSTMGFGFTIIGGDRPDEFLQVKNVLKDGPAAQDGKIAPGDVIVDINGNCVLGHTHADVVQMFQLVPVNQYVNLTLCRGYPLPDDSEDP
Chain of Inadl_10, Q8NI35 (Q8NI35 1673-1763): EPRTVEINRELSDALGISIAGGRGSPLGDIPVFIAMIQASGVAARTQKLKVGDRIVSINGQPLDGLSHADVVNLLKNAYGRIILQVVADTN
Chain of GRASP, Q7Z6J2 (Q7Z6J2 96-193): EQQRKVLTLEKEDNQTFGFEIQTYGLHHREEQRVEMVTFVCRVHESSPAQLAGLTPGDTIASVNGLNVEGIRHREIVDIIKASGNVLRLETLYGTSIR
Chain of GRIP2_6, Q9C0E4 (Q9C0E4 648-740): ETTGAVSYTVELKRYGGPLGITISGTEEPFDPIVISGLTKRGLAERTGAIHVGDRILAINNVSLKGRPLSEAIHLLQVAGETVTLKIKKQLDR
Chain of GRIP2_4, Q9C0E4 (Q9C0E4 446-548): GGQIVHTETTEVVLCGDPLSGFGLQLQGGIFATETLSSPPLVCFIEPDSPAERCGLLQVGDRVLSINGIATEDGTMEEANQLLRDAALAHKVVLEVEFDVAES
Chain of GORASP1, Q9BQQ3 (Q9BQQ3 1-208): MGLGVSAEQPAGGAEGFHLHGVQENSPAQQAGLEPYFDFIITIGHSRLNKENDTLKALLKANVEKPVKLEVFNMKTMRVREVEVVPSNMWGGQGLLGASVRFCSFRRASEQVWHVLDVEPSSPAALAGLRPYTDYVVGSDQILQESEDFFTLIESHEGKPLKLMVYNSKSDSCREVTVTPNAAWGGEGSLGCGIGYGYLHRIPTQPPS
Chain of DLG1_3, Q12959 (Q12959 457-571): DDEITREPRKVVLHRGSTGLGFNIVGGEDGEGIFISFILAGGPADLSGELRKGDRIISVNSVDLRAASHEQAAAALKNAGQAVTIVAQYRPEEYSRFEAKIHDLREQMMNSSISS

B1: CACNG8, Q8WXS5 (peptide)
chain: NTLNRKTTPV
In the case of B1, the pKd (CARD11, Q9BXL7; [1]) is reported as “below the threshold”, the pKd (DFNB31_3, Q9P202; [1]) is reported as “below the threshold” and the pKd (DLG1_3, Q12959; [1]) is reported as 4.33. For the same binder, the pKd (DLG2_3, Q15700; [1]) was 4.9, the pKd (FRMPD2_3, Q68DX3; [1]) was “below the threshold” and the pKd (GOPC, Q9HD26; [1]) was 3.72. The pKd (GORASP1, Q9BQQ3; [1]) was “below the threshold”, the pKd (GRASP, Q7Z6J2; [1]) was 4.22 and the pKd (GRIP1_4, Q9Y3R0; [1]) was “below the threshold”. For the same binder, the pKd (GRIP1_7, Q9Y3R0; [1]) was 3.49, the pKd (GRIP2_4, Q9C0E4; [1]) was 3.52 and the pKd (GRIP2_6, Q9C0E4; [1]) was “below the threshold”. The pKd (HTRA3, P83110; [1]) was “below the threshold”, the pKd (IL16_3, Q14005; [1]) was “below the threshold” and the pKd (Inadl_10, Q8NI35; [1]) was “below the threshold”. For the same binder, the pKd (Inadl_2, Q8NI35; [1]) was “below the threshold”, the pKd (Inadl_6, Q8NI35; [1]) was “below the threshold” and the pKd (LRRC7, Q96NW7; [1]) was “below the threshold”. For the same binder, the pKd (MAGI3_2, Q5TCQ9; [1]) was 5.05, the pKd (NHERF3_3, Q5T2W1; [1]) was “below the threshold” and the pKd (RHPN1, Q8TCX5; [1]) was “below the threshold”. It also gave a pKd (SCRIB_1, Q14160; [1]) of 3.64, a pKd (SNTA1, Q13424; [1]) of 3.93 and a pKd (SNTB1, Q13884; [1]) of 4.07. For the same binder, the pKd (SNX27, Q96L92; [1]) was 4.98 and the pKd (TIAM2, Q8IVF5; [1]) was “below the threshold”.

B2: CACNG2, Q9Y698 (peptide)
chain: NTANRRTTPV
B2 was tested, and the pKd (CARD11, Q9BXL7; [1]) was “below the threshold”, the pKd (DFNB31_3, Q9P202; [1]) was “below the threshold” and the pKd (DLG1_3, Q12959; [1]) was 4.16. The pKd (DLG2_3, Q15700; [1]) was 4.82, the pKd (FRMPD2_3, Q68DX3; [1]) was “below the threshold” and the pKd (GOPC, Q9HD26; [1]) was “below the threshold”. The pKd (GORASP1, Q9BQQ3; [1]) was “below the threshold”, the pKd (GRASP, Q7Z6J2; [1]) was 4.18 and the pKd (GRIP1_4, Q9Y3R0; [1]) was “below the threshold”. The pKd (GRIP1_7, Q9Y3R0; [1]) was “below the threshold”, the pKd (GRIP2_4, Q9C0E4; [1]) was “below the threshold” and the pKd (GRIP2_6, Q9C0E4; [1]) was “below the threshold”. The pKd (HTRA3, P83110; [1]) was “below the threshold”, the pKd (IL16_3, Q14005; [1]) was “below the threshold” and the pKd (Inadl_10, Q8NI35; [1]) was “below the threshold”. The pKd (Inadl_2, Q8NI35; [1]) was “below the threshold”, the pKd (Inadl_6, Q8NI35; [1]) was “below the threshold” and the pKd (LRRC7, Q96NW7; [1]) was “below the threshold”. The pKd (MAGI3_2, Q5TCQ9; [1]) was 5.16, the pKd (NHERF3_3, Q5T2W1; [1]) was “below the threshold” and the pKd (RHPN1, Q8TCX5; [1]) was “below the threshold”. The pKd (SCRIB_1, Q14160; [1]) was 3.49, the pKd (SNTA1, Q13424; [1]) was 4.1 and the pKd (SNTB1, Q13884; [1]) was 4.23. For the same binder, the pKd (SNX27, Q96L92; [1]) was 4.99 and the pKd (TIAM2, Q8IVF5; [1]) was “below the threshold”.

B3: FRMPD1, Q5SYB0 (peptide)
chain: TQKFRASTAL
For B3, the pKd (CARD11, Q9BXL7; [2]) was “below the threshold”, the pKd (DFNB31_3, Q9P202; [2]) was “below the threshold” and the pKd (DLG1_3, Q12959; [2]) was 3.49. The pKd (DLG2_3, Q15700; [2]) was “below the threshold”, the pKd (FRMPD2_3, Q68DX3; [2]) was “below the threshold” and the pKd (GOPC, Q9HD26; [2]) was 4.12. The pKd (GORASP1, Q9BQQ3; [2]) was 3.51, the pKd (GRASP, Q7Z6J2; [2]) was 4.56 and the pKd (GRIP1_4, Q9Y3R0; [2]) was “below the threshold”. For the same binder, the pKd (GRIP1_7, Q9Y3R0; [2]) was “below the threshold”, the pKd (GRIP2_4, Q9C0E4; [2]) was “below the threshold” and the pKd (GRIP2_6, Q9C0E4; [2]) was “below the threshold”. For the same binder, the pKd (HTRA3, P83110; [2]) was “below the threshold”, the pKd (IL16_3, Q14005; [2]) was “below the threshold” and the pKd (Inadl_10, Q8NI35; [2]) was 3.61. For the same binder, the pKd (Inadl_2, Q8NI35; [2]) was “below the threshold”, the pKd (Inadl_6, Q8NI35; [2]) was “below the threshold” and the pKd (LRRC7, Q96NW7; [2]) was “below the threshold”. The pKd (MAGI3_2, Q5TCQ9; [2]) was 4.28, the pKd (NHERF3_3, Q5T2W1; [2]) was “below the threshold” and the pKd (RHPN1, Q8TCX5; [2]) was 3.79. For the same binder, the pKd (SCRIB_1, Q14160; [2]) was 4.22, the pKd (SNTA1, Q13424; [2]) was “below the threshold” and the pKd (SNTB1, Q13884; [2]) was “below the threshold”. For the same binder, the pKd (SNX27, Q96L92; [2]) was 4.03 and the pKd (TIAM2, Q8IVF5; [2]) was “below the threshold”.

B4: HBV-HBc, P03193 (peptide)
chain: RRRRSQSRESQC
With B4 the pKd (CARD11, Q9BXL7; [3]) was “below the threshold”, the pKd (DFNB31_3, Q9P202; [3]) was “below the threshold” and the pKd (DLG1_3, Q12959; [3]) was 3.98. For the same binder, the pKd (DLG2_3, Q15700; [3]) was 4.18, the pKd (FRMPD2_3, Q68DX3; [3]) was “below the threshold” and the pKd (GOPC, Q9HD26; [3]) was “below the threshold”. The pKd (GORASP1, Q9BQQ3; [3]) was “below the threshold”, the pKd (GRASP, Q7Z6J2; [3]) was “below the threshold” and the pKd (GRIP1_4, Q9Y3R0; [3]) was “below the threshold”. For the same binder, the pKd (GRIP1_7, Q9Y3R0; [3]) was “below the threshold”, the pKd (GRIP2_4, Q9C0E4; [3]) was “below the threshold” and the pKd (GRIP2_6, Q9C0E4; [3]) was “below the threshold”. For the same binder, the pKd (HTRA3, P83110; [3]) was 3.58, the pKd (IL16_3, Q14005; [3]) was “below the threshold” and the pKd (Inadl_10, Q8NI35; [3]) was “below the threshold”. For the same binder, the pKd (Inadl_2, Q8NI35; [3]) was “below the threshold”, the pKd (Inadl_6, Q8NI35; [3]) was “below the threshold” and the pKd (LRRC7, Q96NW7; [3]) was “below the threshold”. The pKd (MAGI3_2, Q5TCQ9; [3]) was 4.64, the pKd (NHERF3_3, Q5T2W1; [3]) was “below the threshold” and the pKd (RHPN1, Q8TCX5; [3]) was “below the threshold”. It also gave a pKd (SCRIB_1, Q14160; [3]) of 4.48, a pKd (SNTA1, Q13424; [3]) of 4.44 and a pKd (SNTB1, Q13884; [3]) of 4.78. For the same binder, the pKd (SNX27, Q96L92; [3]) was 4.76 and the pKd (TIAM2, Q8IVF5; [3]) was 3.86.
